The record followed here is patent publication KR20150068913A.

This assay deals with 광견병 바이러스 CVS-11의 야생형 G 단백질 (rabies virus CVS-11) (UniProt O92284). In words: cell-based or functional assay.
Chain of UniProt O92284 (O92284 20-524 limits assumed): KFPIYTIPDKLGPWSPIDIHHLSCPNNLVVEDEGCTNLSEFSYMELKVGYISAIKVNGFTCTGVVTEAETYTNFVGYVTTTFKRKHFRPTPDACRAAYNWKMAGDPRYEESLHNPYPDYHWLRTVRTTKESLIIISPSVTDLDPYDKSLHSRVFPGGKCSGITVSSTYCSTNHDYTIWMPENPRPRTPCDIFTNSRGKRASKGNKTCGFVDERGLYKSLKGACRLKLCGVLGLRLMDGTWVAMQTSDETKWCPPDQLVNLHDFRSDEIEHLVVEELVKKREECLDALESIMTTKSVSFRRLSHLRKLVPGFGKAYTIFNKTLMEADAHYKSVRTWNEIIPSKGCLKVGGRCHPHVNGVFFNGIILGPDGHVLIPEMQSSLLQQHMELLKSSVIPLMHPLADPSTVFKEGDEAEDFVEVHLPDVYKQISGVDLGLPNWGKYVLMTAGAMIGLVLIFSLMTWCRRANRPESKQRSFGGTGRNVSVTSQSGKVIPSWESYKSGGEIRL

B1: 이 건 항체 2 (antibody, V domains shown)
VH: EVQLVESGAEVKKPGASVKVSCKASGYTFTSYDVSWVRQAPGQGLEWMGWISAYRGNTKYAQKFQGRVTMTTDTSTSTAYMELRSLRSDDTAVYYCARAKSHPYYDFWSGYYVPGAFDIWGQGTMVTVSS
VL: ELQMTQSPSSLSASVGDRVTITCQASQDISNYLTWYQQKPGKAPKLLIYDASNLETGVPSRFSGSGSGTDFTFTISSLQPEDIATYYCQQYDNLPPTFGGGTKVEIKR
As to B1, the RFFIT IU/mL, CVS-11 is 1.59 IU/mL; the RFFIT IU/mg, CVS-11 (중화능력) amounted to 7940 IU/mg; the RFFIT Titer, CVS-11 was 270.
